The values that follow come from paper doi:10.1101/144360 (bioRxiv, 2017).

In this assay the target is T1, 6xHIS-SH3_(Boi1) (S. cerevisiae, UniProt P38041 13-77).
T1 sequence: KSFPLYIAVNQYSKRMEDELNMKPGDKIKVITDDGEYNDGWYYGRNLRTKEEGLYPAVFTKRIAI
The experiment in a line: SPR. For orientation: SPR reads the build-up and loss of mass on a sensor chip optically.

AGT = not defined here

For the molecule 6xHis-SVSSKGPSNSLNLSTADLSLN-{AGT} (reading uncertain; also: AGT tag covalently labeled with SNAP-Biotin) [6xHis-Exo84_(121-141)-AGT], the dissociation constant Kd is about 1000 nM.

Usually Kd stands for the equilibrium constant for the complex coming apart.
